# In PMC3323580:
# What was measured:
# Assay in all cases: SPR; C3b (1620 RU), C4b (1518 RU) and C1q (2125 RU) amine-coupled on three flow cells of one CM5 chip; CR1 fragments flowed at 30 µl/min, Biacore T100, 25°C, HBS-EP pH 7.4 (10 mM Hepes, 150 mM saline, 3 mM EDTA, 0.05% polysorbate 20); steady-state fit, one-to-one model; duplicates
# [1] = target: C4b, complement-activation fragment of C4
# [2] = target: C1q, classical complement pathway protein (UniProt P02745)
# [3] = target: C3b, complement-activation fragment of C3
# Sequence of C1q, classical complement pathway protein (P02745 23-245, chain 1 of 3): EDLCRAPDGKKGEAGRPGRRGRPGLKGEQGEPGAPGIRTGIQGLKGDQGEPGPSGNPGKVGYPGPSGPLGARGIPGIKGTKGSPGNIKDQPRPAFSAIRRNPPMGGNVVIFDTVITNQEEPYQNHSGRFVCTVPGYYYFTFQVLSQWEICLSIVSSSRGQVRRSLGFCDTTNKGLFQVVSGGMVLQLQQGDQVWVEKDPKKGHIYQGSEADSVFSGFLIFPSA
# Sequence of C1q, classical complement pathway protein (P02746 28-253, chain 2 of 3, further chain): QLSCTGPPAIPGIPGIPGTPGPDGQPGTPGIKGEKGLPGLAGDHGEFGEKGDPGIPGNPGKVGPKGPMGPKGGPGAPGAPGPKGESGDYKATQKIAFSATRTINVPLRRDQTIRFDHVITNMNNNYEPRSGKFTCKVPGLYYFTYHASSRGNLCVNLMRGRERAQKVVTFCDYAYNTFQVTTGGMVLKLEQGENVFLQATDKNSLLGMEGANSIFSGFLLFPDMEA
# Sequence of C1q, classical complement pathway protein (P02747 29-245, chain 3 of 3, further chain): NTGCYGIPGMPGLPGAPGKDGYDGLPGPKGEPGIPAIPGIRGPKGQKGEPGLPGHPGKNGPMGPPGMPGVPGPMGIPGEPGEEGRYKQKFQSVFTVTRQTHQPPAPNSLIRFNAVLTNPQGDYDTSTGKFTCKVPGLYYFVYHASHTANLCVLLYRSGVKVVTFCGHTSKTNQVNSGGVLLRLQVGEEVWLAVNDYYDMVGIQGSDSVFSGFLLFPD
Substance,Kd [1],Kd [2],Kd [3]
"CR1 15–25(KG), complement receptor-type 1 CCPs 15–25, Lys1590/Gly1601 variant (domain or fragment)",5.2 µM,5.5 µM,1.05 µM
"CR1 15–17 (site 2), complement receptor-type 1 CCPs 15–17 (domain or fragment)",3.2 µM,0.82 µM,1.06 µM
"CR1 15–25(EG), complement receptor-type 1 CCPs 15–25, Glu1590/Gly1601 variant (domain or fragment)",5 µM,5.1 µM,0.8 µM
"CR1 1–3 (site 1), complement receptor-type 1 CCPs 1–3 (domain or fragment)",11.2 µM,30.9 µM,38 µM
"CR1 15–25(ER), complement receptor-type 1 CCPs 15–25, Glu1590/Arg1601 variant (domain or fragment)",5.3 µM,5.7 µM,1.09 µM
"soluble CR1 (sCR1), full-length ectodomain of complement receptor-type 1 (from UniProt P17927 42-1971)",0.91 µM,–,0.53 µM
"CR1 15–25(KR), complement receptor-type 1 CCPs 15–25, Lys1590/Arg1601 variant (domain or fragment)",5.1 µM,5.7 µM,0.99 µM
